Measured values from patent US20260137781A1 (University of California, published 2026).

Tests used:
[1] = target: T1, Integrin beta-2/Integrin alpha-L recombinant protein complex (R and D 3868-AV) (UniProt P20701 26-1090); experiment: BLI (Octet), antibody captured on AHQ biosensor, integrin complex in solution at 300/60/12 nM; the legend paragraph 15 names Itgal/Itgb2 as the antigen
T1 construct: Bought complex; also called Itgal/Itgβ2; ItgaL/Itgβ2
Procedure: (§1) To determine the binding kinetic parameters of the antibodies, BLI experiments were performed on an Octet HTX instrument (Sartorius) at 1000 rpm and 25° C. All proteins were diluted in an assay buffer (PBS, 1% BSA, 0.05% Tween 20). Test and control antibodies at a concentration of 2 μg/ml were first captured on AHQ biosensors to achieve the binding signals of 0.8-1.3 nm. Unoccupied Fc-binding sites on the antibody-coated sensors were subsequently quenched by 20 μg/mL of the Fc protein. After equilibration with the assay buffer, the biosensors were then dipped for 600 s into wells containing 5-fold serial dilution of Integrin-beta 2 complexes (association phase), followed by a transfer back into an assay buffer for additional 600 s (dissociation phase). Assay buffer alone served as a negative control. Binding response data were reference subtracted and were globally fitted with 1:1 binding model using ForteBio's Octet Systems software 9.0.

[2] = target: Integrin beta-2/Integrin alpha-M recombinant protein complex (R and D 4047-AM) (UniProt P11215 17-1105); experiment: phage display selection on immobilised complex, clones evaluated by phage ELISA
Procedure: Briefly, Integrin-beta-2 recombinant protein complexes were immobilized on Maxisorp Immuno plates (ThermoFisher, #12-565-135) and used for positive binding selections with library phage pools that were first exposed to neutravidin coated wells to deplete nonspecific binders. After four rounds of binding selections, clonal phage was prepared and evaluated by phage ELISA and sequencing as described (PMID: 23219464).

[3] = target: T2, recombinant Itgβ2 (Integrin beta-2 complex, alpha chain not stated for this result); experiment: BLI (Octet), antibody captured on AHQ biosensors, Integrin beta-2 complex in solution, 1:1 fit
T2 construct: Bought R&D Systems heterodimer; also called Integrin-beta 2 complexes
Procedure: as §1

binding result [1]: binds
binding result [2]: binds
Kd [3]: 1.56 nM
B1: Antibody D3-7065 (antibody, V domains shown)
VH: EVQLVESGGGLVQPGGSLRLSCAASGFTISYYYMHWVRQAPGKGLEWVASISSSSGYTYYADSVKGRFTISADTSKNTAYLQMNSLRAEDTAVYYCARGAMDYWGQGTLVTVSS
VL: DIQMTQSPSSLSASVGDRVTITCRASQSVSSAVAWYQQKPGKAPKLLIYSASSLYSGVPSRFSGSRSGTDFTLTISSLQPEDFATYYCQQFSSGSWAPITFGQGTKVEIK
notes: It was purified on protein A and captured on AHQ biosensors for BLI
